Experiments:
Assay in all cases: MST; His-tagged DHS variants labelled with RED-tris-NTA 2nd Generation, 8.32 nM; eIF5A titrated, sixteen dilutions 0.00175–57.5 μM; 50 mM Tris, 200 mM NaCl, 5 mM β-ME pH 8; Monolith NT.115, 40% excitation power, 60% MST power; no NAD or SPD
Details in all cases: both partners purified
[1] = biological target: T1, deoxyhypusine synthase F272A, His-tagged (human, UniProt P49366 1-369, F272A, RED-tris-NTA 2nd Generation dye on the His tag)
T1 construct: human deoxyhypusine synthase, Uniprot P49366, residues 1-369, site-directed mutant of the pET24d full-length construct; also called DHS F272A; source: E. coli, purified; not shown: 6xHis, N-terminal, kept
T1 sequence (looked up): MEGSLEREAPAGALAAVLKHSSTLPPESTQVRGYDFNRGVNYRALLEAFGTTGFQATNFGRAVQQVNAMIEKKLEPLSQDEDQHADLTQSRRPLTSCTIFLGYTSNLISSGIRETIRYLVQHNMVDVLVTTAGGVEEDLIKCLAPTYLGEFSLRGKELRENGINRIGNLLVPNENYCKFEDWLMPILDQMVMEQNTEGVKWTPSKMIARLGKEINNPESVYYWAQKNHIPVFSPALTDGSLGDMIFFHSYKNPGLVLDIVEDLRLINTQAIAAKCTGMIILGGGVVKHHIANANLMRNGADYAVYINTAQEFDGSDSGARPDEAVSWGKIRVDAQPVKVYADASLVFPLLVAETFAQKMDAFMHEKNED

[2] = biological target: T2, deoxyhypusine synthase N173A, His-tagged (human, UniProt P49366 1-369, N173A, RED-tris-NTA 2nd Generation dye on the His tag)
T2 construct: human deoxyhypusine synthase, Uniprot P49366, residues 1-369, site-directed mutant of the pET24d full-length construct; also called DHS N173A; source: E. coli, purified; not shown: 6xHis, N-terminal, kept
T2 sequence (looked up): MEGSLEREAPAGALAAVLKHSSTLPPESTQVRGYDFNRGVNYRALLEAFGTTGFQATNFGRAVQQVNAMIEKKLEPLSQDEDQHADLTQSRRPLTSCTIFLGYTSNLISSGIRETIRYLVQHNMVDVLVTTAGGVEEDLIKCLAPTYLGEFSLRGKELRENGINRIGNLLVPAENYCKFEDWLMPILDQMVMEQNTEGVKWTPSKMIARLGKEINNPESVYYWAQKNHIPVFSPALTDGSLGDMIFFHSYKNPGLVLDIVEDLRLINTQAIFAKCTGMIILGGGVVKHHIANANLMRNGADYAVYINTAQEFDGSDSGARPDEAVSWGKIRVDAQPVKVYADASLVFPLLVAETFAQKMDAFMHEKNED

[3] = biological target: T3, deoxyhypusine synthase E137A, His-tagged (human, UniProt P49366 1-369, E137A, RED-tris-NTA 2nd Generation dye on the His tag)
T3 construct: human deoxyhypusine synthase, Uniprot P49366, residues 1-369, site-directed mutant of the pET24d full-length construct; also called DHS E137A; source: E. coli, purified; not shown: 6xHis, N-terminal, kept
T3 sequence (looked up): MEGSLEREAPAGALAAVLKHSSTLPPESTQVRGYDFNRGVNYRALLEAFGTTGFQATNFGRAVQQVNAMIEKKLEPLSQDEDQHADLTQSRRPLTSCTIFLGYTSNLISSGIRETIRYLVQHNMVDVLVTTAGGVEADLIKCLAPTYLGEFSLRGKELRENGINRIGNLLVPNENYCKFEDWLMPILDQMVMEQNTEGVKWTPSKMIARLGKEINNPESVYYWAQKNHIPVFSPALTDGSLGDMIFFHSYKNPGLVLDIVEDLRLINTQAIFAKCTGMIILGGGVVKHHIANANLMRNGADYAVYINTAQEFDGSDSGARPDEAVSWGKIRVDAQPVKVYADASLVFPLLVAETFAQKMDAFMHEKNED

[4] = biological target: T4, deoxyhypusine synthase Y250A, His-tagged (human, UniProt P49366 1-369, Y250A, RED-tris-NTA 2nd Generation dye on the His tag)
T4 construct: human deoxyhypusine synthase, Uniprot P49366, residues 1-369, site-directed mutant of the pET24d full-length construct; also called DHS Y250A; source: E. coli, purified; not shown: 6xHis, N-terminal, kept
T4 sequence (looked up): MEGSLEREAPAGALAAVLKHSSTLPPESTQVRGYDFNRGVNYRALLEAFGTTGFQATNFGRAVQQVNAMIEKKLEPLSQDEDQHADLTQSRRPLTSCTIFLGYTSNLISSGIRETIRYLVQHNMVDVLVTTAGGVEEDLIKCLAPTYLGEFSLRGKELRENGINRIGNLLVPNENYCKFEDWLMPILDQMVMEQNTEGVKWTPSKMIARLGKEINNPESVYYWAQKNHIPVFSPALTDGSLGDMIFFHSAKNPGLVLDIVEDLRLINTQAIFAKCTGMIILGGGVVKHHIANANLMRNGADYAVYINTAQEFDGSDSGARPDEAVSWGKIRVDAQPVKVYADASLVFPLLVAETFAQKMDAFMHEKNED

Kd [1]: 504 ± 154 nM | Kd [2]: > 5 µM | Kd [3]: 2550 ± 880 nM | Kd [4]: > 5 µM
B1: eukaryotic translation factor 5A (eIF5A-1), residues 15-151 (domain or fragment)
chain: not shown
notes: human eIF5A1, residues 15-151, from pET28-MHL (Addgene); The purification protocol removes the tag with TEV; source: E. coli, purified (HisTrap, TEV cleavage, reverse HisTrap, SEC); not shown: His tag, N-terminal, cleaved

From PMC10042821, “Cryo-EM structure of human eIF5A-DHS complex reveals the molecular basis of hypusination-associated neurodegenerative disorders” (Nature Communications, 2023)
